Test system: Escherichia coli TOP10
Experiment: shrunken log2 fold change of peptide-encoding DNA abundance (4.5 h post-induction vs induction); higher = less antimicrobial activity (less host growth inhibition)
Conditions: time post-induction: 4.5 h; library: site-saturation at positions 5, 18, 19, 20
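Further: peptides expressed intracellularly from a pBAD plasmid library in pooled LB shake-flask culture, induced with 0.3% L-arabinose, DNA abundance read by NGS, three biological replicates, DESeq2 with apeglm shrinkage.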

| Sequence | shrunken log2 fold change |
| --- | --- |
| RRIRYRPPRLPRPRPRPGHEPRP | -0.18 |
| RRIRYRPPRLPRPRPRPGLQPRP | -0.0156 |
| RRIRYRPPRLPRPRPRPGMKPRP | -0.067 |
| RRIRYRPPRLPRPRPRPGNAPRP | 0.0744 |
| RRIRYRPPRLPRPRPRPGNFPRP | -0.307 |
| RRIRYRPPRLPRPRPRPGNIPRP | -0.153 |
| RRIRYRPPRLPRPRPRPGNMPRP | -0.55 |
| RRIRYRPPRLPRPRPRPGPCPRP | -0.227 |
| RRIRYRPPRLPRPRPRPGPDPRP | 0.184 |
| RRIRYRPPRLPRPRPRPGPKPRP | 0.185 |
| RRIRYRPPRLPRPRPRPGQSPRP | -0.108 |
| RRIRYRPPRLPRPRPRPGTAPRP | -0.39 |
| RRIRYRPPRLPRPRPRPGTKPRP | -0.0505 |
| RRIRYRPPRLPRPRPRPGVCPRP | -0.0493 |
| RRIRYRPPRLPRPRPRPGWCPRP | -0.128 |
| RRIRYRPPRLPRPRPRPGWHPRP | 0.00731 |
| RRIRYRPPRLPRPRPRPGYGPRP | -0.541 |
| RRIRYRPPRLPRPRPRPHCIPRP | -0.0129 |
| RRIRYRPPRLPRPRPRPHCMPRP | -0.161 |
| RRIRYRPPRLPRPRPRPHDFPRP | -0.167 |
| RRIRYRPPRLPRPRPRPHDLPRP | -0.00151 |
| RRIRYRPPRLPRPRPRPHDNPRP | -1.04 |
| RRIRYRPPRLPRPRPRPHFVPRP | -0.182 |
| RRIRYRPPRLPRPRPRPHGLPRP | 0.0126 |
| RRIRYRPPRLPRPRPRPHHQPRP | -1.06 |

| Sequence | shrunken log2 fold change |
| --- | --- |
| RRIRYRPPRLPRPRPRPHISPRP | -0.317 |
| RRIRYRPPRLPRPRPRPHNKPRP | -0.718 |
| RRIRYRPPRLPRPRPRPHNNPRP | -1.16 |
| RRIRYRPPRLPRPRPRPHNQPRP | -0.753 |
| RRIRYRPPRLPRPRPRPHNRPRP | -0.245 |
| RRIRYRPPRLPRPRPRPHPAPRP | -0.333 |
| RRIRYRPPRLPRPRPRPHQDPRP | -0.0582 |
| RRIRYRPPRLPRPRPRPHQGPRP | -0.142 |
| RRIRYRPPRLPRPRPRPHQQPRP | -0.0439 |
| RRIRYRPPRLPRPRPRPHRGPRP | -0.192 |
| RRIRYRPPRLPRPRPRPHRMPRP | -1.51 |
| RRIRYRPPRLPRPRPRPHRPPRP | 0.0424 |
| RRIRYRPPRLPRPRPRPHRYPRP | -0.41 |
| RRIRYRPPRLPRPRPRPHSFPRP | -0.00356 |
| RRIRYRPPRLPRPRPRPHSSPRP | -0.207 |
| RRIRYRPPRLPRPRPRPHTHPRP | -1.17 |
| RRIRYRPPRLPRPRPRPHTYPRP | -0.189 |
| RRIRYRPPRLPRPRPRPHVMPRP | -0.644 |
| RRIRYRPPRLPRPRPRPHVPPRP | -0.277 |
| RRIRYRPPRLPRPRPRPHVRPRP | -0.202 |
| RRIRYRPPRLPRPRPRPHWDPRP | -0.92 |
| RRIRYRPPRLPRPRPRPHYMPRP | -1.45 |
| RRIRYRPPRLPRPRPRPHYNPRP | -1.18 |
| RRIRYRPPRLPRPRPRPHYVPRP | -0.208 |
| RRIRYRPPRLPRPRPRPIDFPRP | -0.245 |

| Sequence | shrunken log2 fold change |
| --- | --- |
| RRIRYRPPRLPRPRPRPIDNPRP | -0.542 |
| RRIRYRPPRLPRPRPRPIELPRP | -0.0405 |
| RRIRYRPPRLPRPRPRPIFQPRP | -0.568 |
| RRIRYRPPRLPRPRPRPIIHPRP | -1.21 |
| RRIRYRPPRLPRPRPRPIKLPRP | -0.126 |
| RRIRYRPPRLPRPRPRPILYPRP | -0.679 |
| RRIRYRPPRLPRPRPRPINDPRP | -0.0981 |
| RRIRYRPPRLPRPRPRPIPFPRP | -1.53 |
| RRIRYRPPRLPRPRPRPIRPPRP | -0.129 |
| RRIRYRPPRLPRPRPRPIRYPRP | -0.00146 |
| RRIRYRPPRLPRPRPRPISRPRP | -0.113 |
| RRIRYRPPRLPRPRPRPISVPRP | -0.534 |
| RRIRYRPPRLPRPRPRPITDPRP | -0.162 |
| RRIRYRPPRLPRPRPRPIVIPRP | -0.0448 |
| RRIRYRPPRLPRPRPRPIWVPRP | -0.0696 |
| RRIRYRPPRLPRPRPRPIYAPRP | -0.461 |
| RRIRYRPPRLPRPRPRPIYFPRP | 0.548 |
| RRIRYRPPRLPRPRPRPIYSPRP | -0.143 |
| RRIRYRPPRLPRPRPRPKARPRP | 0.0182 |
| RRIRYRPPRLPRPRPRPKDMPRP | 0.0203 |
| RRIRYRPPRLPRPRPRPKFPPRP | -1.01 |
| RRIRYRPPRLPRPRPRPKHRPRP | 0.0727 |
| RRIRYRPPRLPRPRPRPKLKPRP | -0.0928 |
| RRIRYRPPRLPRPRPRPKLQPRP | 0.124 |
| RRIRYRPPRLPRPRPRPKNFPRP | -0.663 |

| Sequence | shrunken log2 fold change |
| --- | --- |
| RRIRYRPPRLPRPRPRPKNPPRP | -0.315 |
| RRIRYRPPRLPRPRPRPKPIPRP | 0.0874 |
| RRIRYRPPRLPRPRPRPKQFPRP | -0.155 |
| RRIRYRPPRLPRPRPRPKQMPRP | 0.0213 |
| RRIRYRPPRLPRPRPRPKQVPRP | 0.234 |
| RRIRYRPPRLPRPRPRPKSIPRP | -0.0776 |
| RRIRYRPPRLPRPRPRPKTNPRP | -0.516 |
| RRIRYRPPRLPRPRPRPKTTPRP | -0.0197 |
| RRIRYRPPRLPRPRPRPKVGPRP | 0.0316 |
| RRIRYRPPRLPRPRPRPKVHPRP | -0.677 |
| RRIRYRPPRLPRPRPRPKWLPRP | -0.221 |
| RRIRYRPPRLPRPRPRPKYMPRP | -0.998 |
| RRIRYRPPRLPRPRPRPLAQPRP | -0.17 |
| RRIRYRPPRLPRPRPRPLCWPRP | -0.264 |
| RRIRYRPPRLPRPRPRPLEAPRP | 0.0153 |
| RRIRYRPPRLPRPRPRPLEDPRP | -0.00931 |
| RRIRYRPPRLPRPRPRPLFRPRP | -0.66 |
| RRIRYRPPRLPRPRPRPLHFPRP | -0.0434 |
| RRIRYRPPRLPRPRPRPLHGPRP | -0.0615 |
| RRIRYRPPRLPRPRPRPLHNPRP | -0.507 |
| RRIRYRPPRLPRPRPRPLHYPRP | -1.53 |
| RRIRYRPPRLPRPRPRPLITPRP | -0.749 |
| RRIRYRPPRLPRPRPRPLKFPRP | -0.42 |
| RRIRYRPPRLPRPRPRPLKIPRP | -0.134 |
| RRIRYRPPRLPRPRPRPLLAPRP | -0.197 |

| Sequence | shrunken log2 fold change |
| --- | --- |
| RRIRYRPPRLPRPRPRPLLEPRP | -0.17 |
| RRIRYRPPRLPRPRPRPLMDPRP | -0.143 |
| RRIRYRPPRLPRPRPRPLMLPRP | -1.32 |
| RRIRYRPPRLPRPRPRPLPQPRP | -0.0827 |
| RRIRYRPPRLPRPRPRPLPTPRP | -0.0873 |
| RRIRYRPPRLPRPRPRPLRCPRP | 0.0617 |
| RRIRYRPPRLPRPRPRPLSKPRP | -1.03 |
| RRIRYRPPRLPRPRPRPLVNPRP | -1.09 |
| RRIRYRPPRLPRPRPRPLWCPRP | -0.125 |
| RRIRYRPPRLPRPRPRPLWEPRP | -0.369 |
| RRIRYRPPRLPRPRPRPLYAPRP | -1.49 |
| RRIRYRPPRLPRPRPRPLYQPRP | -0.13 |
| RRIRYRPPRLPRPRPRPLYVPRP | -0.465 |
| RRIRYRPPRLPRPRPRPMCGPRP | -0.17 |
| RRIRYRPPRLPRPRPRPMGKPRP | -0.452 |
| RRIRYRPPRLPRPRPRPMGRPRP | -0.117 |
| RRIRYRPPRLPRPRPRPMGVPRP | -0.762 |
| RRIRYRPPRLPRPRPRPMHGPRP | 0.00652 |
| RRIRYRPPRLPRPRPRPMIAPRP | -0.188 |
| RRIRYRPPRLPRPRPRPMIIPRP | -0.138 |
| RRIRYRPPRLPRPRPRPMIWPRP | -0.00195 |
| RRIRYRPPRLPRPRPRPMKTPRP | -0.0156 |
| RRIRYRPPRLPRPRPRPMLAPRP | -0.269 |
| RRIRYRPPRLPRPRPRPMLDPRP | -0.467 |
| RRIRYRPPRLPRPRPRPMLEPRP | 0.0653 |

| Sequence | shrunken log2 fold change |
| --- | --- |
| RRIRYRPPRLPRPRPRPMLNPRP | -0.892 |
| RRIRYRPPRLPRPRPRPMLRPRP | -0.256 |
| RRIRYRPPRLPRPRPRPMMKPRP | -0.0161 |
| RRIRYRPPRLPRPRPRPMMSPRP | -0.322 |
| RRIRYRPPRLPRPRPRPMMWPRP | 0.00408 |
| RRIRYRPPRLPRPRPRPMQIPRP | -6.27e-05 |
| RRIRYRPPRLPRPRPRPMQQPRP | -0.0118 |
| RRIRYRPPRLPRPRPRPMSTPRP | -0.0213 |
| RRIRYRPPRLPRPRPRPMWHPRP | -0.156 |
| RRIRYRPPRLPRPRPRPNARPRP | -0.0675 |
| RRIRYRPPRLPRPRPRPNDLPRP | 0.018 |
| RRIRYRPPRLPRPRPRPNECPRP | 0.0256 |
| RRIRYRPPRLPRPRPRPNFFPRP | -0.074 |
| RRIRYRPPRLPRPRPRPNFIPRP | -1.22 |
| RRIRYRPPRLPRPRPRPNFRPRP | -0.425 |
| RRIRYRPPRLPRPRPRPNGDPRP | -0.112 |
| RRIRYRPPRLPRPRPRPNGMPRP | -0.0465 |
| RRIRYRPPRLPRPRPRPNHFPRP | -0.0628 |
| RRIRYRPPRLPRPRPRPNHHPRP | -1.19 |
| RRIRYRPPRLPRPRPRPNIMPRP | -1.42 |
| RRIRYRPPRLPRPRPRPNKLPRP | -0.987 |
| RRIRYRPPRLPRPRPRPNLAPRP | -0.0223 |
| RRIRYRPPRLPRPRPRPNLDPRP | -0.148 |
| RRIRYRPPRLPRPRPRPNLLPRP | -0.213 |
| RRIRYRPPRLPRPRPRPNMAPRP | -0.00884 |

From the supplement of paper PMC9112550, “Optimization of the antimicrobial peptide Bac7 by deep mutational scanning” (BMC Biology, 2022)
